From paper PMC2674534 come the findings set out here.

The target in this data set is Sox9 (UniProt Q04887 1-507). Put plainly: EMSA.
Chain of Sox9 (Q04887 whole entry): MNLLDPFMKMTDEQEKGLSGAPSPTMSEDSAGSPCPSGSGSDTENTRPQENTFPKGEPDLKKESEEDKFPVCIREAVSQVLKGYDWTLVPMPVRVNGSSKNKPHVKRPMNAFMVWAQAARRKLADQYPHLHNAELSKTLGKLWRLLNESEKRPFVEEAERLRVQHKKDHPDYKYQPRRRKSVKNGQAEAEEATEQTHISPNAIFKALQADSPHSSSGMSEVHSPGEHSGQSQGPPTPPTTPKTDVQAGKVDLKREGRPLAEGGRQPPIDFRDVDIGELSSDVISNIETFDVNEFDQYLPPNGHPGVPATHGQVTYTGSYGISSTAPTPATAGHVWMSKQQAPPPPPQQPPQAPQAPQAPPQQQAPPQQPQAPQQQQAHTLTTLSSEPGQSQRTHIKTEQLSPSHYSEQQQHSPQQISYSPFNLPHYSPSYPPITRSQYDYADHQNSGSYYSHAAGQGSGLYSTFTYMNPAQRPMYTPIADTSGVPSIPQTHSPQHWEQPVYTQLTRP

B1: Col2a1 enhancer probe (Sox9-binding site) (dsDNA)
DNA 1: GCGCTTGAGAAAAGCCCCATTCATGAGAGGC
DNA 2: GCCTCTCATGAATGGGGCTTTTCTCAAGCGC
Turning to B1, the binding result is listed as “binds”.
